According to paper PMC10533412, “Phosphoantigens glue butyrophilin 3A1 and 2A1 to activate Vγ9Vδ2 T cells” (Nature, 2023):

Legend:
[1] = target: BTN3A1 B30.2 domain, O00481; assay: ITC; conditions: chain shown with the change; with HMBPP
[2] = target: BTN3A1 B30.2 domain (human) (UniProt O00481)
Chain of BTN3A1 B30.2 domain (human) (O00481 328-513): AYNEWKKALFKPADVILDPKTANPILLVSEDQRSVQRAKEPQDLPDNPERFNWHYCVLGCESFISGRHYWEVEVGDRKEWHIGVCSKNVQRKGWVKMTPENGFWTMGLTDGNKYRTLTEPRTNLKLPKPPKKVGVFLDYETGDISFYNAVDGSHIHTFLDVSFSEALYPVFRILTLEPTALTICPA

Chain of BTN3A1 B30.2 domain, O00481 (O00481 328-513): as above

| Binder | Kd [1] [nM] | AFM-SCFS binding force between a Vγ9Vδ2 T cell and a MIA PaCa-2 cell, without and with HMBPP treatment [2] [pN] |
| --- | --- | --- |
| BTN2A2 B30.2 domain, Q8WVV5 W374R; M506T (protein) EELRWRRTFLHAADVVLDPDTAHPELFLSEDRRSVRRGPYRQRVPDNPERFDSQPCVLGRESFASGKHYWEVEVENVMVWTVGVCRHSVERKGEVLLIPQNGFWTLEMFGNQYRALSSPERILPLKESLCRVGVFLDYEAGDVSFYNMRDRSHIYTCPRSAFTVPVRPFFRLGSDDSPIFICPALTGASGVTVPEEGLKLHRVGTHQSL | 189 |  |
| BTN2A1 B30.2 domain (domain or fragment) EELRWRRTFLHAVDVVLDPDTAHPDLFLSEDRRSVRRCPFRHLGESVPDNPERFDSQPCVLGRESFASGKHYWEVEVENVIEWTVGVCRDSVERKGEVLLIPQNGFWTLEMHKGQYRAVSSPDRILPLKESLCRVGVFLDYEAGDVSFYNMRDRSHIYTCPRSAFSVPVRPFFRLGCEDSPIFICPALTGANGVTVPEEGLTLHRVGTHQSL |  | 1550 |
